Blank lines part the entries; values can stand above or below the molecule they belong to.
Tests used:
[1] = system: Aspergillus terreus var. aureus FAD-GDH (flavin adenine dinucleotide glucose dehydrogenase), enzyme No. 1, host Pichia pastoris; test: Michaelis constant of FAD-GDH enzyme No. 1; type: biochemical; details: 110 kDa
[2] = substrate: OC[C@H]1OC(O)[C@H](O)[C@@H](O)[C@@H]1O; test: Michaelis constant of FAD-GDH enzyme No. 2; type: biochemical, Thermoascus crustaceus; details: other: enzyme No. 2, host Escherichia coli, 60 kDa
[3] = substrate: OC[C@H]1OC(O)[C@H](O)[C@@H](O)[C@@H]1O; test: Michaelis constant of FAD-GDH enzyme No. 4; type: biochemical, Thermoascus crustaceus; details: other: enzyme No. 4, host Saccharomyces cerevisiae, 90 kDa
[4] = substrate: OC[C@H]1OC(O)[C@H](O)[C@@H](O)[C@@H]1O; test: Michaelis constant of FAD-GDH enzyme No. 3; type: biochemical, Thermoascus crustaceus; details: other: enzyme No. 3, host Pichia pastoris, 90 kDa

Km [1]: 82 mM
Molecule: OC[C@H]1OC(O)[C@H](O)[C@@H](O)[C@@H]1O (stereo partly shown) [glucose]

B1: Thermoascus crustaceus FAD-GDH (flavin adenine dinucleotide glucose dehydrogenase), enzyme No. 2, host Escherichia coli (Thermoascus crustaceus) (protein)
chain: TSYDYIIVGGGTSGLVVANRLSEDSSVSVLVVEAGDSVYNNPNVTGTGAYGAAFGTSIDWAYQTIKQPYAGDLTQTIRAGKALGGTSTINGMAYTRAEDVQIDAWEAIGNQGWNWSTLFPYYLKSERFQIPINAQSAAGANWNPAYHGMNGPLTTGWTYEMMNGSMAEVLNATYQNLGISYLPDVNGGKMHGYTLFPRTVNRALDVREDAARAYYYPFESSRPNLSVMLNTYGNRIVWANATNTNSVTATGVEVTLSDGTVQTIQANKEVILSAGSLISPAILERSGVGNPTVLSRFGIPLVVNLTTVGENLQDQMNTEFIYLSNATFSGQSTFLGHPTAADLFGSNVTNVAKSVQSSLPHYAATVSEASNGTMSAAVLQKLFQLQYNIIFNNPTPIAEILVAPSGSKFITEYWALLPFARGNVHIGSANPLDRPVINPNYMMFEWDMQEQIASGKFVRKLYGTAPFTNWATGEATPGYSTLPANATDGQWAQWISSVSRSNFHPVGTAAMMPRDMGGVVDSNLVVYGTNNVRVIDASVLPLQVCGHLVSTLYAVAERASDLIKAGQV
Km [2]: 4.6 mM

B2: Thermoascus crustaceus FAD-GDH (flavin adenine dinucleotide glucose dehydrogenase), enzyme No. 4, host Saccharomyces cerevisiae (Thermoascus crustaceus) (protein)
chain: TSYDYIIVGGGTSGLVVANRLSEDSSVSVLVVEAGDSVYNNPNVTGTGAYGAAFGTSIDWAYQTIKQPYAGDLTQTIRAGKALGGTSTINGMAYTRAEDVQIDAWEAIGNQGWNWSTLFPYYLKSERFQIPINAQSAAGANWNPAYHGMNGPLTTGWTYEMMNGSMAEVLNATYQNLGISYLPDVNGGKMHGYTLFPRTVNRALDVREDAARAYYYPFESSRPNLSVMLNTYGNRIVWANATNTNSVTATGVEVTLSDGTVQTIQANKEVILSAGSLISPAILERSGVGNPTVLSRFGIPLVVNLTTVGENLQDQMNTEFIYLSNATFSGQSTFLGHPTAADLFGSNVTNVAKSVQSSLPHYAATVSEASNGTMSAAVLQKLFQLQYNIIFNNPTPIAEILVAPSGSKFITEYWALLPFARGNVHIGSANPLDRPVINPNYMMFEWDMQEQIASGKFVRKLYGTAPFTNWATGEATPGYSTLPANATDGQWAQWISSVSRSNFHPVGTAAMMPRDMGGVVDSNLVVYGTNNVRVIDASVLPLQVCGHLVSTLYAVAERASDLIKAGQV
Km [3]: 3.2 mM

B3: Thermoascus crustaceus FAD-GDH (flavin adenine dinucleotide glucose dehydrogenase), enzyme No. 3, host Pichia pastoris (Thermoascus crustaceus) (protein)
chain: TSYDYIIVGGGTSGLVVANRLSEDSSVSVLVVEAGDSVYNNPNVTGTGAYGAAFGTSIDWAYQTIKQPYAGDLTQTIRAGKALGGTSTINGMAYTRAEDVQIDAWEAIGNQGWNWSTLFPYYLKSERFQIPINAQSAAGANWNPAYHGMNGPLTTGWTYEMMNGSMAEVLNATYQNLGISYLPDVNGGKMHGYTLFPRTVNRALDVREDAARAYYYPFESSRPNLSVMLNTYGNRIVWANATNTNSVTATGVEVTLSDGTVQTIQANKEVILSAGSLISPAILERSGVGNPTVLSRFGIPLVVNLTTVGENLQDQMNTEFIYLSNATFSGQSTFLGHPTAADLFGSNVTNVAKSVQSSLPHYAATVSEASNGTMSAAVLQKLFQLQYNIIFNNPTPIAEILVAPSGSKFITEYWALLPFARGNVHIGSANPLDRPVINPNYMMFEWDMQEQIASGKFVRKLYGTAPFTNWATGEATPGYSTLPANATDGQWAQWISSVSRSNFHPVGTAAMMPRDMGGVVDSNLVVYGTNNVRVIDASVLPLQVCGHLVSTLYAVAERASDLIKAGQV
Km [4]: 2.8 mM

— patent US20190194714A1, “REAGENT FOR GLUCOSE SENSOR, GLUCOSE SENSOR, METHOD FOR MANUFACTURING GLUCOSE SENSOR, AND GLUCOSE MEASURING DEVICE” (NATIONAL INSTITUTE OF ADVANCED INDUSTRIAL SCIENCE AND …, priority 2016, published 2019)
